The values below come from patent US20210333284A1, “METHODS AND MATERIALS FOR LARGE-SCALE ASSESSMENT OF LIGAND BINDING SELECTIVITY OF G-QUADRUPLEX RECOGNITION USING CUSTOM G4 MICROARRAYS” (Purdue Research Foundation, priority 2020, published 2021).

For series [1], the system named is G4 sequences and non-G4 ssDNA controls on Design 3 microarray. The series can be described thus: Custom G4 DNA microarray, direct binding by fluorescence intensity. Also on record: species or system human. The text has this: Three Agilent DNA microarrays (TABLE 1) were designed, each with four identical sectors that contain ca.177,440 ssDNA 60-mers to examine G4-binding specificity. Arrays were designed with 9-73 replicates of each unique sequence to ensure statistical significance (TABLE 1). Each microarray contains different sets of G4 variants designed to examine several sequence parameters that affect G4 formation and binding specificity such as loop length (Design 1), loop sequence (Design 2), tail sequence (Design 2), and single nucleotide variants of six known G4s (Design 3). All microarrays include a set of 19 sequences from human telomeres and oncogene promoters known to form G4s with various topologies as positive controls (TABLE 2). Designs 2 and 3 have a set of 295 additional G4-forming sequences from the literature.^30 For the loop length variants, the length of the tails and loops of four different MYC G4 sequences (MYC Pu27, MYC Pu18ntd, MYC Pu22, and MYC Pu22 NMR mutant) was increased up to five times their length. Loop and tail sequences were varied using A, T, G, and C polynucleotide stretches and a subset of combinations. For the loop sequence variants, 4,096 sequences of the form NGGGNGGGNNGGGNGGGN (SEQ ID NO: 2) and 64 variants of the form GGGNGGGNGGGNGGG (SEQ ID NO: 1) were generated. For the tail variants, 256 versions of the major MYC G4 with all possible dinucleotide tails ([…] (SEQ ID NO: 3)) were generated. […]
The binding specificities of several molecules were evaluated. […] Binding of each molecule is measured by detection of fluorescence intensity at each of the microarray features. […] Cellular proteins were expressed as chimeric proteins containing GST, and binding for these proteins was detected using an anti-GST antibody conjugated with Cy5 (Materials and Methods). […] For Cy5-PDS, robust binding is observed at 1 μM, with fluorescence intensities ranging over 100-fold between strongest and weakest bound DNA features. The fluorescence-binding intensities of Cy5-PDS are proportional to the concentration of pyridostatin used). […]

In series [2] the test system is genomic G4 sequences (folded G4 structures). The series is described as follows: G4 microarray binding in potassium vs lithium. Further details: species or system human. As to conditions: GST-tagged proteins. The protocol:
The binding specificities of several molecules were evaluated. Microarrays were preincubated with 100 mM potassium chloride to induce G4 formation. Binding of each molecule is measured by detection of fluorescence intensity at each of the microarray features. BG4 and pyridostatin were conjugated with Cy5. Cellular proteins were expressed as chimeric proteins containing GST, and binding for these proteins was detected using an anti-GST antibody conjugated with Cy5 (Materials and Methods). G4 Structures Fold on DNA Microarrays. To evaluate the utility of DNA microarrays to examine G4-binding specificity, a Cy5-labeled pyridostatin (Cy5-PDS), a small molecule known to bind broadly to G4 structures, was synthesized.^13 A Cy5 conjugated version of BG4 (Cy5-BG4), an antibody developed to bind G4s, was also obtained.^31 FIG. 1A, B presents replicate binding intensities to 15,491 DNA sequences on the Design 3 microarray using either Cy5-PDS or Cy5-BG4. For Cy5-PDS, robust binding is observed at 1 μM, with fluorescence intensities ranging over 100-fold between strongest and weakest bound DNA features. The fluorescence-binding intensities of Cy5-PDS are proportional to the concentration of pyridostatin used). […] Antibody binding to non-G4 features increases with higher concentrations, and in some cases non-G4 sequences are more strongly bound by Cy5-BG4 than G4 sequences, including multiple cytosine-rich negative control sequences. Inhibition of G4 Formation Inhibits Cy5-PDS and Cy5-BG4 Binding. Cy5-PDS and Cy5-BG4 binding under conditions that inhibit G4 formation was examined to evaluate if G4 structures form on the microarray and are required for binding. […] It is noted that many sequences, in addition to the oncogene G4 sequences, are capable of forming G4s. […] For Cy5-BG4, the decrease in binding was up to 270-fold for genomic G4 sequences, while binding to negative controls decreased up to 23-fold (FIG. 1D,). In a second experiment, Cy5-PDS binding following a primer extension reaction that produces dsDNA^24 was examined (see Materials and Methods), anticipating that dsDNA would predominate over G4 formation^13. […] 2,27,28
Microarrays were preincubated with a 100 mM potassium chloride solution for 1 h at RT to induce G4 formation. Protein binding microarray experiments were then performed as previously described.^23 Microarrays were blocked with 4% nonfat dry milk in a potassium phosphate buffer before incubation with proteins or small molecules. Expressed proteins were blocked with 4% nonfat dry milk, ssDNA, and BSA. For the validation experiments, microarrays were also treated with 100 mM lithium chloride to inhibit G4 formation. For experiments examining dsDNA, single-stranded DNA probes were made double-stranded using a primer complementary to a 24-mer constant sequence following the method described previously.^23,24 Double stranding efficiency was monitored using 4% Cy3-dCTP.
Protein or molecule-bound microarrays were scanned with the G5761A SureScan Dx Microarray Scanner System (Agilent) to detect a Cy5 signal at two laser settings (30 and 100 PMT) to ensure signal intensities were below saturation. Spot intensities from microarray images were extracted using the Agilent Feature Extraction Software and are reported as raw fluorescence units. All binding assays were performed at least twice, with high agreement between replicates (R>0.8). Microarrays with the fewest number of saturated spots were used for further analysis. Median intensity was then computed for probes containing identical sequence on each microarray. […]

B1: DHX36: GST-tagged human DHX36/G4R1/MLEL1 helicase (protein, listed as Homo sapiens)
chain: MSYDYHQNWGRDGGPRSSGGGYGGGPAGGHGGNRGSGGGGGGGGGGRGGRGRHPGHLKGREIGMWYAKKQGQKNKEAERQERAVVHMDERREEQIVQLLNSVQAKNDKESEAQISWFAPEDHGYGTEVSTKNTPCSENKLDIQEKKLINQEKKMFRIRNRSYIDRDSEYLLQENEPDGTLDQKLLEDLQKKKNDLRYIEMQHFREKLPSYGMQKELVNLIDNHQVTVISGETGCGKTTQVTQFILDNYIERGKGSACRIVCTQPRRISAISVAERVAAERAESCGSGNSTGYQIRLQSRLPRKQGSILYCTTGIILQWLQSDPYLSSVSHIVLDEIHERNLQSDVLMTVVKDLLNFRSDLKVILMSATLNAEKFSEYFGNCPMIHIPGFTFPVVEYLLEDVIEKIRYVPEQKEHRSQFKRGFMQGHVNRQEKEEKEAIYKERWPDYVRELRRRYSASTVDVIEMMEDDKVDLNLIVALIRYIVLEEEDGAILVFLPGWDNISTLHDLLMSQVMFKSDKFLIIPLHSLMPTVNQTQVFKRTPPGVRKIVIATNIAETSITIDDVVYVIDGGKIKETHFDTQNNISTMSAEWVSKANAKQRKGRAGRVQPGHCYHLYNGLRASLLDDYQLPEILRTPLEELCLQIKILRLGGIAYFLSRLMDPPSNEAVLLSIRHLMELNALDKQEELTPLGVHLARLPVEPHIGKMILFGALFCCLDPVLTIAASLSFKDPFVIPLGKEKIADARRKELAKDTRSDHLTVVNAFEGWEEARRRGFRYEKDYCWEYFLSSNTLQMLHNMKGQFAEHLLGAGFVSSRNPKDPESNINSDNEKIIKAVICAGLYPKVAKIRLNLGKKRKMVKVYTKTDGLVAVHPKSVNVEQTDFHYNWLIYHLKMRTSSIYLYDCTEVSPYCLLFFGGDISIQKDNDQETIAVDEWIVFQSPARIAHLVKELRKELDILLQEKIESPHPVDWNDTKSRDCAVLSAIIDLIKTQEKATPRNFPPRFQDGYYS
modifications: GST tag
notes: GST-tagged human DHX36/G4R1/MLEL1 helicase
In the case of B1, the “binding specificity, G4 vs non-G4 ssDNA sequences” value in series [1] is “bind only G4 sequences”. Further, the “effect of lithium chloride (inhibiting G4 formation) on protein binding” value in series [2] is “weakened binding”.

B2: FANCJ: GST-tagged human BRCA1-binding helicase-like protein / Fanconi anemia group J protein (protein, listed as Homo sapiens)
chain: MSSMWSEYTIGGVKIYFPYKAYPSQLAMMNSILRGLNSKQHCLLESPTGSGKSLALLCSALAWQQSLSGKPADEGVSEKAEVQLSCCCACHSKDFTNNDMNQGTSRHFNYPSTPPSERNGTSSTCQDSPEKTTLAAKLSAKKQASIYRDENDDFQVEKKRIRPLETTQQIRKRHCFGTEVHNLDAKVDSGKTVKLNSPLEKINSFSPQKPPGHCSRCCCSTKQGNSQESSNTIKKDHTGKSKIPKIYFGTRTHKQIAQITRELRRTAYSGVPMTILSSRDHTCVHPEVVGNFNRNEKCMELLDGKNGKSCYFYHGVHKISDQHTLQTFQGMCKAWDIEELVSLGKKLKACPYYTARELIQDADIIFCPYNYLLDAQIRESMDLNLKEQVVILDEAHNIEDCARESASYSVTEVQLRFARDELDSMVNNNIRKKDHEPLRAVCCSLINWLEANAEYLVERDYESACKIWSGNEMLLTLHKMGITTATFPILQGHFSAVLQKEEKISPIYGKEEAREVPVISASTQIMLKGLFMVLDYLFRQNSRFADDYKIAIQQTYSWTNQIDISDKNGLLVLPKNKKRSRQKTAVHVLNFWCLNPAVAFSDINGKVQTIVLTSGTLSPMKSFSSELGVTFTIQLEANHIIKNSQVWVGTIGSGPKGRNLCATFQNTETFEFQDEVGALLLSVCQTVSQGILCFLPSYKLLEKLKERWLSTGLWHNLELVKTVIVEPQGGEKTNFDELLQVYYDAIKYKGEKDGALLVAVCRGKVSEGLDFSDDNARAVITIGIPFPNVKDLQVELKRQYNDHHSKLRGLLPGRQWYEIQAYRALNQALGRCIRHRNDWGALILVDDRFRNNPSRYISGLSKWVRQQIQHHSTFESALESLAEFSKKHQKVLNVSIKDRTNIQDNESTLEVTSLKYSTPPYLLEAASHLSPENFVEDEAKICVQELQCPKIITKNSPLPSSIISRKEKNDPVFLEEAGKAEKIVISRSTSPTFNKQTKRVSWSSFNSLGQYFTGKIPKATPELGSSENSASSPPRFKTEKMESKTVLPFTDKCESSNLTVNTSFGSCPQSETIISSLKIDATLTRKNHSEHPLCSEEALDPDIELSLVSEEDKQSTSNRDFETEAEDESIYFTPELYDPEDTDEEKNDLAETDRGNRLANNSDCILAKDLFEIRTIKEVDSAREVKAEDCIDTKLNGILHIEESKIDDIDGNVKTTWINELELGKTHEIEIKNFKPSPSKNKGMFPGFK
modifications: GST tag
In the case of B2, the “binding specificity, G4 vs non-G4 ssDNA sequences” value in series [1] is reported as “also bind other ssDNAs in addition to folded G4s”. Besides, the “effect of lithium chloride (inhibiting G4 formation) on protein binding” value in series [2] is “weakened binding”.
